# Earlier results as cited in paper PMC7116363 (Biomaterials, 2020).
# Columns and labels:
# L cells = conditions: in mice
# [1] = not given; remark: listed apart in the source
molecule,measurement,setting,value
liraglutide,circulating levels after oral co-administration with SNAC,,failed to provide circulating levels
CCC(=O)O [propionate],effective concentration of propionate needed to exert an effect on L cells,L cells,140 mmol/L
semaglutide,half-life,[1],165 h
